# Measurements taken from patent publication US20230087785A1, “Leucine-Rich Repeat Kinase 2 Allosteric Modulators” (VIB VZW, priority 2020, published 2023).
# T1: LRRK2 Roc domain construct (human, UniProt Q5S007 1329-1520)
# T1 construct: not shown: N-terminal His6-tag of pET-28a
# T1 sequence: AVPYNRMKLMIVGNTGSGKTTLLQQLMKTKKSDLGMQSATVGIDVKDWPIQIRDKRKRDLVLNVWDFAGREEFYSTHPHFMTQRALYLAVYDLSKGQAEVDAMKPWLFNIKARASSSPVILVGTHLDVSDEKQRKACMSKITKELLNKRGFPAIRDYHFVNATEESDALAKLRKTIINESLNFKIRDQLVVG
# T2: LRRK2 RocCOR domain construct (human, UniProt Q5S007 1334-1840)
# T2 construct: A second construct (residues 1293-1840, N-terminal His6-MBP) was used in certain screening experiments; not shown: N-terminal Twin-Strep-tag; C-terminal His10-tag
# T2 sequence: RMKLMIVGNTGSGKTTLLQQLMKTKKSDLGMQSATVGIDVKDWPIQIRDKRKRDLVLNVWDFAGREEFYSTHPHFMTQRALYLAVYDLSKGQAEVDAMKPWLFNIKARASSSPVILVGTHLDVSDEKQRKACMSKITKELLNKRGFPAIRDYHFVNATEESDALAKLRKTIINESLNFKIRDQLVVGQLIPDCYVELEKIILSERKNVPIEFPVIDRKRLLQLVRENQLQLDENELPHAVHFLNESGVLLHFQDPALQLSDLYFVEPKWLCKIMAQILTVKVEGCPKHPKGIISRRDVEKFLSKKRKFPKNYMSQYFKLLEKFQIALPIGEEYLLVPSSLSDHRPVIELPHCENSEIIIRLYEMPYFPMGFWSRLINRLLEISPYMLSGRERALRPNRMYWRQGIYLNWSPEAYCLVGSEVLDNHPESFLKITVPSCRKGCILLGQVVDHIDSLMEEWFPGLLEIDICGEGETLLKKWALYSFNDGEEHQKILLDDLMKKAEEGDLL
# T3: LRRK2 kinase-WD40 domain construct (human, UniProt Q5S007 1876-2527)
# T3 construct: also called K-WD40; not shown: N-terminal His-tag (pFastBac)
# T3 sequence: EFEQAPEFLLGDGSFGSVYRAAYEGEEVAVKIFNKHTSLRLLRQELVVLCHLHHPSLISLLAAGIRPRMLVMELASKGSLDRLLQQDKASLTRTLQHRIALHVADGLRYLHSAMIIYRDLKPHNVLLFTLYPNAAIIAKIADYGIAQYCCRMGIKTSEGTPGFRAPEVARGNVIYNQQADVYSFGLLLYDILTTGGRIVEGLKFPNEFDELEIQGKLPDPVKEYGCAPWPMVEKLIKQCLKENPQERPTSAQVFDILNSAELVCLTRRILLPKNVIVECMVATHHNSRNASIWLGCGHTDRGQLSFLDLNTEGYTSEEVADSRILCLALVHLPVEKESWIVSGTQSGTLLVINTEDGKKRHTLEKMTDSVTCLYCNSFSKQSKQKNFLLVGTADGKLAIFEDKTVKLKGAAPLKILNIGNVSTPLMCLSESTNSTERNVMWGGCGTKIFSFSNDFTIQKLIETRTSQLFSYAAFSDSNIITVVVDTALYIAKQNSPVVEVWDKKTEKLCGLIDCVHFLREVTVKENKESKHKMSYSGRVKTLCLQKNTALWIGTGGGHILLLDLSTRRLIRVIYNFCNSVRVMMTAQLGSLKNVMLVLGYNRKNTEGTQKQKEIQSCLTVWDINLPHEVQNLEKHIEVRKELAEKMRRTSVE
# Experiments:
# [1] = target: T4, Full-length human Leucine-rich repeat kinase 2 (LRRK2), N-terminal Strep/Flag (SF) tagged (human, UniProt Q5S007 1-2527); assay: MST; LRRK2 titrated to m-TAMRA-labelled Nb, 500 µM GDP
# T4 construct: Purified from HEK293T cells in presence of GDP or GTPγS; also called FL LRRK2; FL-LRRK2
# Procedure: (§1) Microscale thermophoresis (MST) experiments were performed for determining equilibrium binding affinities (KD) of Nbs binding to FL-LRRK2. Therefore, Nb were site-specifically labelled at their C-terminus with m-TAMRA, using Sortase-mediated peptide exchange. The Nbs were recloned into a pHEN29 vector which is subsequently used to express and purify the Nbs with a C-terminal LPETGG-His₆-EPEA tag. Exchange of the latter peptide with an m-TAMRA-labeled GGGYK peptide (GenicBio, Shanghai, China) was performed using Sortase, and unlabeled Nb and unincorporated peptide were removed using a Ni-NTA and SEC purification step, respectively. […] After incubation at 4° C. for 30 mins, samples were loaded in capillaries and measurements were performed at 25° C. using 50-70% LED power and 80% laser intensity (laser on-time: 30 s, laser off-time: 5 s). All experiments were performed in triplicate.
# [2] = target: T1, LRRK2 Roc domain construct; assay: ELISA, antigen coated on the plate, purified Nb detected via its EPEA tag
# From the text: (§2) We recombinantly expressed and purified the RocCOR, Roc, COR-B and kinase-WD40 (K-WD40) domain constructs of LRRK2 (FIG. 7). Subsequently, we performed an ELISA in which all these domain constructs were coated in parallel next to each other in the same ELISA plate, and where we subsequently detected binding of the 42 purified Nbs. […] To enrich in Nbs directed against the Roc domain we specifically included a selection step with either Roc-GTPγS or Roc-GDP.
# [3] = target: T5, LRRK2 COR-B construct (C-terminal part of the COR domain), His6-MBP tagged (human, UniProt Q5S007 1672-1840); assay: as above
# T5 construct: also called (MBP-)COR-B; not shown: N-terminal His6-MBP-tag of pDEST-566
# From the text: as §2
# [4] = target: T2, LRRK2 RocCOR domain construct; assay: as above
# From the text: as §2
# [5] = target: T4, Full-length human Leucine-rich repeat …; assay: BLI; Nb on LRRK2 trapped on streptavidin sensor via biotinylated Nb42; steady-state fit
# Procedure: (§3) To determine the binding affinity (dissociation constant KD) of the ten Nbs for LRRK2, two methods were used in parallel: microscale thermophoresis (MST) and bio-layer interferometry (BLI). For the MST experiment, we site-specifically labeled the ten Nbs with a m-TAM RA fluorophore at its C-terminus, using sortase-mediated coupling, and then titrated increasing amounts of full-length LRRK2 to these Nbs (FIGS. 13A-13E).
# (§4) Biolayer interferometry (BLI) measurements were performed using an Octet Red96 (Forte Bio, Inc.) system in a buffer containing 50 mM HEPES pH 8.0, 150 mM NaCl, 10 mM MgCl₂, 5% glycerol, 0.1% BSA, 0.05% Tween, at 25° C. and with shaking speed 1000 rpm. […] The biotinylated Nbs were first loaded on pre-equilibrated SA biosensors at a concentration of 5 μg/mL. This Nb-loaded sensor was then used to trap FL-LRRK2 from a 50 nM LRRK2 solution. […] All experiments were performed in triplicate.
# [6] = target: T4, Full-length human Leucine-rich repeat …; assay: kinase kinetics (PhosphoSens, varied ATP), global fit to mixed inhibition; affinity for apo-LRRK2; enzyme kinetics, mixed inhibition fit; apo-LRRK2
# Procedure: (§5) Full Michaelis-Menten curves (relative velocity versus [ATP]) in presence of different Nb concentrations were collected at 30° C. in a buffer consisting of 50 mM HEPES pH 7.5, 0.1% Brij-35, 50 mM NaCl, 10 mM MgCl₂ and […], using a fixed concentration of AQT0615 (10 μM) and varying concentrations of ATP. The LRRK2 concentration was chosen such that initial rates (linear fluorescence versus time curves) were obtained, and LRRK2, ATP and the Nbs were preincubated at 4° C. for 30 min prior to starting the reaction by adding the peptide substrate. The Michaelis-Menten curves for the different Nb concentrations were globally fit on a mixed-inhibition model using GraphPad Prism, according to the equation: […]
# [7] = target: T4, Full-length human Leucine-rich repeat …; assay: cell-based or functional assay
# [8] = target: T3, LRRK2 kinase-WD40 domain construct; assay: ELISA, antigen coated on the plate, purified Nb detected via its EPEA tag
# From the text: as §2
# [9] = target: T4, Full-length human Leucine-rich repeat …; assay: kinase kinetics (PhosphoSens, varied ATP), global fit to mixed inhibition; ATP-bound LRRK2; enzyme kinetics, mixed inhibition fit; ATP-bound LRRK2
# Procedure: as §5
# [10] = target: T4, Full-length human Leucine-rich repeat …; assay: BLI; Nb on LRRK2 trapped on streptavidin sensor via biotinylated Nb40; steady-state fit
# Procedure: as §3, §4
# [11] = target: T4, Full-length human Leucine-rich repeat …; assay: ELISA titration on coated LRRK2, Nb detected via its C-terminal EPEA tag, A405 read at 0.5 h
# Procedure: (§6) LRRK2 was coated in the wells of the ELISA plate and the ELISA signal for a dilution series of the respective Nbs (detected via their C-terminal EPEA-tag) is plotted in function of the Nb concentration. […] A “no antigen control”, where no LRRK2 was coated on the bottom of the well, is also included.
# (§7) Detection of Nb binding was performed using the C-terminal EPEA tag of the Nbs as described before, resulting in a dose response titration curve reflecting an apparent affinity of the Nbs. […] A “no antigen control”, where no LRRK2 was coated on the bottom of the well, was also included.
# [12] = target: T4, Full-length human Leucine-rich repeat …; assay: ELISA titration on coated LRRK2, Nb detected via its C-terminal EPEA tag, A405 read at 10 h
# Procedure: as §6, §7
# [13] = target: T4, Full-length human Leucine-rich repeat …; assay: MST; LRRK2 titrated to m-TAMRA-labelled Nb, in presence of GTPγS instead of GDP; MST in presence of GTPγS instead of GDP
# Procedure: as §1
Kd [1] [nM],binding result [2],binding result [3],binding result [4],Kd [5] [nM],Ki [6] [nM],"IC50 of in vitro LRRK2 kinase activity (AQT0615 peptide, PhosphoSens, 1 mM ATP) [7] [nM]",binding result [8],Ki [9] [nM],Kd [10] [nM],EC50 (read off the curve) [11] [nM],EC50 (read off the curve) [12] [nM],Kd [13] [nM],Binder
83,no binding (tested: not given),,,,5000,14000,no binding (tested: not given),8000,7,~5,,,Nb6 (CA12618) (VHH) VHH: QVQLVESGGGLVQAGGSLRLSCAASGSIFSPTAMGWYRQAPGKERELVAGITSGGYTNYRNFARGRFTISRDNAKKTVYLQMNSLNPEDTAVYYCNTLTISWSWGQGTQVTVSS
,,no binding (tested: not given),no binding (tested: not given),,,,no binding (tested: not given),,82,,,94,"Nb42 (CA14259) (VHH, biotinylated form used as trapping agent in BLI of Nb40) VHH: QVQLVESGGGLVQAGGSLRLSCAASGDVNYAVGWFRQAPRKEREFVAAINWRGDNTDYTDSVKGRFTISRDNAKNTVYLQMNSLKPEDTAVYYCAAKSAPYWYSDIAPDYWGQGTQVTVSS"

# Second part, the binder before the results:
Binder,Kd [1] [nM],binding result [2],binding result [3],binding result [4],Kd [5] [nM],Ki [6] [nM],"IC50 of in vitro LRRK2 kinase activity (AQT0615 peptide, PhosphoSens, 1 mM ATP) [7] [nM]",binding result [8],Ki [9] [nM],Kd [10] [nM],EC50 (read off the curve) [11] [nM],EC50 (read off the curve) [12] [nM],Kd [13] [nM]
"Nb40 (CA14135) (VHH, biotinylated form used as trapping agent in BLI) VHH: QVQLVESGGGLVQPGGSLRLSCVASGTIYAINRMGWYRQAPGKQRELVALITLGGGTNYGDSVKGRFTISRDNAKNTGYLQMNSLKPEDTAVYYCKVESSGYTDVFWGQGTQVTVSS",26,no binding (tested: not given),no binding (tested: not given),no binding (tested: not given),41,,,,,,,,
Nb1 (CA12610) (VHH) VHH: QVQLVESGGGLVQAGGSLRLSCVASGRIFSGNAMGWYRQAPGRQRELVAGITNGGYTNYRQFVKGRFTISRDNAKRTVYLQMNSLKPEDTAVYYCNALDREARQVDYWGQGTQVTVSS,91,no binding (tested: not given),,,,16000,8000,no binding (tested: not given),30000,114,,~10,
